Assays:
[1] = target: T1, MazE, P0AE72
T1 chain: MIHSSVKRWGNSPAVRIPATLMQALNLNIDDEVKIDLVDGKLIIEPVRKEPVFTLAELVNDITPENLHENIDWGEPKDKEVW

[2] = target: T2, C-terminal histidine-tagged YgiT
T2 chain: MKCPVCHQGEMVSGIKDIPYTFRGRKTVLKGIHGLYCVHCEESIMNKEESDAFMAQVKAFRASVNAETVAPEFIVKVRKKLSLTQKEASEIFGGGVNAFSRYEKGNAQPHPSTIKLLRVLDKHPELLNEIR

B1: MazF (protein)
chain: MVSRYVPDMGDLIWVDFDPTKGSEQAGHRPAVVLSPFMYNNKTGMCLCVPCTTQSKGYPFEVVLSGQERDGVALADQVKSIAWRARGATKKGTVAPEELQLIKAKINVLIG
In the case of B1, the “cleavage of MS2 RNA (agarose gel)” value [1] is reported as “its activity was completely inhibited when it was preincubated with purified MazE, the antidote of MazF” and the “cleavage of MS2 RNA (agarose gel)” value [2] is reported as “when MazF was incubated with purified YgiT-H, its activity was not inhibited”.
